The values that follow come from publication PMC11266248.

The target of assay [1] is recombinant factor H-like protein 1 (human) (UniProt P08603). Kind of assay: SPR; Biacore T100, CM5 chip; FH (750 RU), rFHL-1 or rFH15-20 (200 RU) amine-coupled as ligands; CspZ or FhbA as analytes; PBS with 0.05% Tween20, 25 °C, 30 µl/min; single-cycle and multiple-cycle kinetics, Langmuir 1:1 model; in duplicate. (In general: In SPR one partner is held on a chip, and binding of the other changes the refractive index at the surface.)
recombinant factor H-like protein 1 (human), sequence (P08603 other isoform, or with tags, fused parts or gaps): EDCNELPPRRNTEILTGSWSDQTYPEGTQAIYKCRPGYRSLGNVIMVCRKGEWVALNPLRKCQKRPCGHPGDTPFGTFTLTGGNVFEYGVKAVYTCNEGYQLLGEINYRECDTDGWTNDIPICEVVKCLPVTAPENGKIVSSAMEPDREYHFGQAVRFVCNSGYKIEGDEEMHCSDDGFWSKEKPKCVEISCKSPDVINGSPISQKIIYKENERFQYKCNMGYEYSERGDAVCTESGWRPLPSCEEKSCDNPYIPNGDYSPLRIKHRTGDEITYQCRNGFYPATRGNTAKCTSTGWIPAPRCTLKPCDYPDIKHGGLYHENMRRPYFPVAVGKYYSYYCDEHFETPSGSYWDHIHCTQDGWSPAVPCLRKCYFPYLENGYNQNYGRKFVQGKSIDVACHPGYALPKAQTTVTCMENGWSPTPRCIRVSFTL

Assay [2] concerns the target factor H binding A (FhbA) from Borrelia hermsii (Borrelia hermsii). The assay is described as follows: LC-HRMS (ESI-Q-TOF); ACE C4 column, 0.1% formic acid/acetonitrile gradient, ESI+, deconvolution with UniDec.
The target is the same in assay [3]. The assay is described as follows: SEC-MALS; Superdex 200 increase 10/300 GL in PBS, 0.7 mL/min; 100 µL injected at about 3.75 mg/mL (CspZ) or 2.50 mg/mL (FhbA).
For assay [4], the target named is recombinant factor H SCR15-20 (human) (UniProt P08603). Kind of assay: SPR; Biacore T100, CM5 chip; FH (750 RU), rFHL-1 or rFH15-20 (200 RU) amine-coupled as ligands; CspZ or FhbA as analytes; PBS with 0.05% Tween20, 25 °C, 30 µl/min; single-cycle and multiple-cycle kinetics, Langmuir 1:1 model; in duplicate.
recombinant factor H SCR15-20 (human), sequence (P08603 860-1231): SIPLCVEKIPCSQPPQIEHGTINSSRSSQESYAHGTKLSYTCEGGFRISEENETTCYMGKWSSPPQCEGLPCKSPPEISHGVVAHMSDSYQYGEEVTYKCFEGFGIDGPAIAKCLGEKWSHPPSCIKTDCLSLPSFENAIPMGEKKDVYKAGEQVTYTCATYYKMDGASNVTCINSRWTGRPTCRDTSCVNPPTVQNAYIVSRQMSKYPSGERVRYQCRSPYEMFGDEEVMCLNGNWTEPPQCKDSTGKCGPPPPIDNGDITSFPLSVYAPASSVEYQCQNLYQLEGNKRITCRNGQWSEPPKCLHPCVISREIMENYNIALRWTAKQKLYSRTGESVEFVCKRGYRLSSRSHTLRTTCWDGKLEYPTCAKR
The target in assay [5] is purified human complement factor H from human plasma/serum (human) (UniProt P08603). The assay is described as above.
purified human complement factor H from human plasma/serum (human), sequence (P08603 19-1231): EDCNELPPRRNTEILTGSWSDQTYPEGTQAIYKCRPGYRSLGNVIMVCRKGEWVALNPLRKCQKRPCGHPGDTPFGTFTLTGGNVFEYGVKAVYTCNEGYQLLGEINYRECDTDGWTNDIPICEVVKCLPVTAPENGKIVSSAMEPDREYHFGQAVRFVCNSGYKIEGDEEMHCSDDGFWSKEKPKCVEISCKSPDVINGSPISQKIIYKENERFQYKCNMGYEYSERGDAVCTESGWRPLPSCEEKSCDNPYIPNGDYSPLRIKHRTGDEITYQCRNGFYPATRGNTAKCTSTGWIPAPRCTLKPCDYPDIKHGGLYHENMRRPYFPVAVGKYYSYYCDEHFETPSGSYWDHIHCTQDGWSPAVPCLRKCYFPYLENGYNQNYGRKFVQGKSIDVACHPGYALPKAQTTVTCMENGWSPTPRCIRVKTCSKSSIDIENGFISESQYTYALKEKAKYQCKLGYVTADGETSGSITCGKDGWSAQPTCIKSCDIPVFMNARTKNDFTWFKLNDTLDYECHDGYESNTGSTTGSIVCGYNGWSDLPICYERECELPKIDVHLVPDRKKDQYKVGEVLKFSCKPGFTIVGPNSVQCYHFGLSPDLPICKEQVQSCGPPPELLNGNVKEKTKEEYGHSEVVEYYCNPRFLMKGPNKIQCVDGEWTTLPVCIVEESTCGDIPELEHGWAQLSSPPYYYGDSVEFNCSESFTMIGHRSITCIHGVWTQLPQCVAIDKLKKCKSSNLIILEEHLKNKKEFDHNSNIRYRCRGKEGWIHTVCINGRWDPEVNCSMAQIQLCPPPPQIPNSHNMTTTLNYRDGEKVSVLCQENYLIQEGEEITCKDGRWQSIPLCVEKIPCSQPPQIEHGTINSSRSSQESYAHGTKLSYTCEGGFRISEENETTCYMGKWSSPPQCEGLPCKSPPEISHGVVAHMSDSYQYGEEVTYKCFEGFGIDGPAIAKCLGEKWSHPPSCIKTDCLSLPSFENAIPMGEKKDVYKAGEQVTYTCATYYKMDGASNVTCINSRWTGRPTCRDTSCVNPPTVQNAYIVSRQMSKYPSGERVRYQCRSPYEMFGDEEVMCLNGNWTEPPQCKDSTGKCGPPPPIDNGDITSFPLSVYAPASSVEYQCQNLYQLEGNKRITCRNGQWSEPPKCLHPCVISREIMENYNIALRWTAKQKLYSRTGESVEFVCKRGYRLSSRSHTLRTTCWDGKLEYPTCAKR

Where “and” joins values, the source holds several entries; their conditions need not be identical. Equal entries are not always repeated.

Consider “CspZ from Borrelia burgdorferi sensu stricto (complement regulator-acquiring surface protein 2) (from UniProt O50665 1-236) (natural protein)”, for which, in assay [1], the Kd (usually a measure of binding affinity in units of concentration) was 0.044 nM; the koff – broadly, the first-order rate constant of dissociation – is 3.1e-05 s⁻¹; the kon (commonly a measure of how fast the partners come together) was found to be 720000 M⁻¹ s⁻¹.

Turning to “factor H binding A (FhbA) from Borrelia hermsii (natural protein)”, in assay [2], the stoichiometry N – broadly, a count of units in the complex or per binding partner – turned out to be 2. Also, in assay [3], the representation of the dimer peak (46.2 kDa) in the sample (%) came to 27%; the representation of the pentamer peak (119.0 kDa) in the sample (%) was found to be 1%; the representation of the trimer peak (71.7 kDa) in the sample (%) came out at 6%; the stoichiometry N was 2 and 3 and 5. Also, in assay [4], the Kd was determined as 3.37 nM, the koff is 0.000266 s⁻¹ and the kon is 85400 M⁻¹ s⁻¹. For the same substance, in assay [1], the Kd amounted to 42.9 nM, the koff was 6.74e-05 s⁻¹ and the kon is 1570 M⁻¹ s⁻¹. Besides, in assay [5], the Kd is 1.09 nM, the koff worked out at 0.000268 s⁻¹ and the kon turned out to be 246000 M⁻¹ s⁻¹.
